The assay concerns the target T1, OTULIN (OTU deubiquitinase with linear linkage specificity, FAM105B), His-tagged, biotin-labelled (human, UniProt Q96BN8 1-352, biotin (label; sites not stated)).
T1 construct: OTULIN (FAM105B), cDNA in pET28a; also called HIS-OTULIN; source: E. coli BL21 (DE3), purified (His-tag Purification Resin), labelled with biotin; not shown: His6, N-terminal, kept
Kind of assay: peptide or protein array; HuProt human proteome microarray; 5 ug/5 ml biotin-labelled LUBAC or OTULIN in solution, 1 h at room temperature; Cy5-streptavidin, scanned at 635 nm; BSA as negative control; hits: Z-score >= 3 and I_(Mean_Ratio) >= 1.4. Particulars: both partners purified.

B1: CYB5R1 (natural protein, human, UniProt Q9UHQ9 1-305, looked up)
chain: MGIQTSPVLLASLGVGLVTLLGLAVGSYLVRRSRRPQVTLLDPNEKYLLRLLDKTTVSHNTKRFRFALPTAHHTLGLPVGKHIYLSTRIDGSLVIRPYTPVTSDEDQGYVDLVIKVYLKGVHPKFPEGGKMSQYLDSLKVGDVVEFRGPSGLLTYTGKGHFNIQPNKKSPPEPRVAKKLGMIAGGTGITPMLQLIRAILKVPEDPTQCFLLFANQTEKDIILREDLEELQARYPNRFKLWFTLDHPPKDWAYSKGFVTADMIREHLPAPGDDVLVLLCGPPPMVQLACHPNLDKLGYSQKMRFTY
notes: CYB5R1; protein on the human proteome microarray; source: spotted on the HuProt human proteome microarray
Consider B1, for which the binding result is listed as “binds”.

B2: DECR2 (natural protein, human, UniProt Q9NUI1 1-292, looked up)
chain: MAQPPPDVEGDDCLPAYRHLFCPDLLRDKVAFITGGGSGIGFRIAEIFMRHGCHTVIASRSLPRVLTAARKLAGATGRRCLPLSMDVRAPPAVMAAVDQALKEFGRIDILINCAAGNFLCPAGALSFNAFKTVMDIDTSGTFNVSRVLYEKFFRDHGGVIVNITATLGNRGQALQVHAGSAKAAVDAMTRHLAVEWGPQNIRVNSLAPGPISGTEGLRRLGGPQASLSTKVTASPLQRLGNKTEIAHSVLYLASPLASYVTGAVLVADGGAWLTFPNGVKGLPDFASFSAKL
notes: DECR2; protein on the human proteome microarray; source: spotted on the HuProt human proteome microarray
In the case of B2, the binding result is listed as “binds”.

B3: CDCA3 (natural protein, human, UniProt Q99618 1-268, looked up)
chain: MGSAKSVPVTPARPPPHNKHLARVADPRSPSAGILRTPIQVESSPQPGLPAGEQLEGLKHAQDSDPRSPTLGIARTPMKTSSGDPPSPLVKQLSEVFETEDSKSNLPPEPVLPPEAPLSSELDLPLGTQLSVEEQMPPWNQTEFPSKQVFSKEEARQPTETPVASQSSDKPSRDPETPRSSGSMRNRWKPNSSKVLGRSPLTILQDDNSPGTLTLRQGKRPSPLSENVSELKEGAILGTGRLLKTGGRAWEQGQDHDKENQHFPLVES
notes: CDCA3; protein on the human proteome microarray; source: spotted on the HuProt human proteome microarray
Take B3: the binding result is “binds”.

B4: FAM49B (natural protein, human, UniProt Q9NUQ9 1-324, looked up)
chain: MGNLLKVLTCTDLEQGPNFFLDFENAQPTESEKEIYNQVNVVLKDAEGILEDLQSYRGAGHEIREAIQHPADEKLQEKAWGAVVPLVGKLKKFYEFSQRLEAALRGLLGALTSTPYSPTQHLEREQALAKQFAEILHFTLRFDELKMTNPAIQNDFSYYRRTLSRMRINNVPAEGENEVNNELANRMSLFYAEATPMLKTLSDATTKFVSENKNLPIENTTDCLSTMASVCRVMLETPEYRSRFTNEETVSFCLRVMVGVIILYDHVHPVGAFAKTSKIDMKGCIKVLKDQPPNSVEGLLNALRYTTKHLNDETTSKQIKSMLQ
notes: FAM49B; protein on the human proteome microarray; source: spotted on the HuProt human proteome microarray
B4: the binding result is on record as “binds”.

B5: C9orf9 (natural protein, human, UniProt Q96E40 1-222, looked up)
chain: MNEVKESLRSIEQKYKLFQQQQLTFTAALEHCRENAHDKIRPISSIGQVQSYMEHYCNSSTDRRVLLMFLDICSELNKLCQHFEAVHSGTPVTNNLLEKCKTLVSQSNDLSSLRAKYPHDVVNHLSCDEARNHYGGVVSLIPLILDLMKEWIAHSEKLPRKVLQHVSEPQAHQESTRGAARPAQAIGTQPRATKHKCRQLTKASLKPRGCSKPPWRPPGGKL
notes: C9orf9; protein on the human proteome microarray; source: spotted on the HuProt human proteome microarray
For B5, the binding result is given as “binds”.

B6: GBGT1 (natural protein, human, UniProt Q8N5D6 1-347, looked up)
chain: MHRRRLALGLGFCLLAGTSLSVLWVYLENWLPVSYVPYYLPCPEIFNMKLHYKREKPLQPVVWSQYPQPKLLEHRPTQLLTLTPWLAPIVSEGTFNPELLQHIYQPLNLTIGVTVFAVGKYTHFIQSFLESAEEFFMRGYRVHYYIFTDNPAAVPGVPLGPHRLLSSIPIQGHSHWEETSMRRMETISQHIAKRAHREVDYLFCLDVDMVFRNPWGPETLGDLVAAIHPSYYAVPRQQFPYERRRVSTAFVADSEGDFYYGGAVFGGQVARVYEFTRGCHMAILADKANGIMAAWREESHLNRHFISNKPSKVLSPEYLWDDRKPQPPSLKLIRFSTLDKDISCLRS
notes: GBGT1; protein on the human proteome microarray; source: spotted on the HuProt human proteome microarray
With B6, the binding result is “binds”.

B7: CSRP1 (natural protein, human, UniProt P21291 1-193, looked up)
chain: MPNWGGGKKCGVCQKTVYFAEEVQCEGNSFHKSCFLCMVCKKNLDSTTVAVHGEEIYCKSCYGKKYGPKGYGYGQGAGTLSTDKGESLGIKHEEAPGHRPTTNPNASKFAQKIGGSERCPRCSQAVYAAEKVIGAGKSWHKACFRCAKCGKGLESTTLADKDGEIYCKGCYAKNFGPKGFGFGQGAGALVHSE
notes: CSRP1; protein on the human proteome microarray; source: spotted on the HuProt human proteome microarray
As for B7, the binding result is recorded as “binds”.

B8: CCNB1IP1 (natural protein, human, UniProt Q9NPC3 1-277, looked up)
chain: MSLCEDMLLCNYRKCRIKLSGYAWVTACSHIFCDQHGSGEFSRSPAICPACNSTLSGKLDIVRTELSPSEEYKAMVLAGLRPEIVLDISSRALAFWTYQVHQERLYQEYNFSKAEGHLKQMEKIYTQQIQSKDVELTSMKGEVTSMKKVLEEYKKKFSDISEKLMERNRQYQKLQGLYDSLRLRNITIANHEGTLEPSMIAQSGVLGFPLGNNSKFPLDNTPVRNRGDGDGDFQFRPFFAGSPTAPEPSNSFFSFVSPSRELEQQQVSSRAFKVKRI
notes: CCNB1IP1; protein on the human proteome microarray; source: spotted on the HuProt human proteome microarray
For B8, the binding result is on record as “binds”.

B9: CRYZ (natural protein, human, UniProt Q08257 1-329, looked up)
chain: MATGQKLMRAVRVFEFGGPEVLKLRSDIAVPIPKDHQVLIKVHACGVNPVETYIRSGTYSRKPLLPYTPGSDVAGVIEAVGDNASAFKKGDRVFTSSTISGGYAEYALAADHTVYKLPEKLDFKQGAAIGIPYFTAYRALIHSACVKAGESVLVHGASGGVGLAACQIARAYGLKILGTAGTEEGQKIVLQNGAHEVFNHREVNYIDKIKKYVGEKGIDIIIEMLANVNLSKDLSLLSHGGRVIVVGSRGTIEINPRDTMAKESSIIGVTLFSSTKEEFQQYAAALQAGMEIGWLKPVIGSQYPLEKVAEAHENIIHGSGATGKMILLL
notes: CRYZ; protein on the human proteome microarray; source: spotted on the HuProt human proteome microarray
On to B9, for which the binding result is listed as “binds”.

B10: GCLM (natural protein, human, UniProt P48507 1-274, looked up)
chain: MGTDSRAAKALLARARTLHLQTGNLLNWGRLRKKCPSTHSEELHDCIQKTLNEWSSQINPDLVREFPDVLECTVSHAVEKINPDEREEMKVSAKLFIVESNSSSSTRSAVDMACSVLGVAQLDSVIIASPPIEDGVNLSLEHLQPYWEELENLVQSKKIVAIGTSDLDKTQLEQLYQWAQVKPNSNQVNLASCCVMPPDLTAFAKQFDIQLLTHNDPKELLSEASFQEALQESIPDIQAHEWVPLWLLRYSVIVKSRGIIKSKGYILQAKRRGS
notes: GCLM; protein on the human proteome microarray; source: spotted on the HuProt human proteome microarray
For B10, the binding result was “binds”.

B11: CSRP3 (natural protein, human, UniProt P50461 1-194, looked up)
chain: MPNWGGGAKCGACEKTVYHAEEIQCNGRSFHKTCFHCMACRKALDSTTVAAHESEIYCKVCYGRRYGPKGIGYGQGAGCLSTDTGEHLGLQFQQSPKPARSVTTSNPSKFTAKFGESEKCPRCGKSVYAAEKVMGGGKPWHKTCFRCAICGKSLESTNVTDKDGELYCKVCYAKNFGPTGIGFGGLTQQVEKKE
notes: CSRP3; protein on the human proteome microarray; source: spotted on the HuProt human proteome microarray
With B11, the binding result was “binds”.

B12: DNALI1 (natural protein, human, UniProt O14645 1-258, looked up)
chain: MIPPADSLLKYDTPVLVSRNTEKRSPKARLLKVSPQQPGPSGSAPQPPKTKLPSTPCVPDPTKQAEEILNAILPPREWVEDTQLWIQQVSSTPSTRMDVVHLQEQLDLKLQQRQARETGICPVRRELYSQCFDELIREVTINCAERGLLLLRVRDEIRMTIAAYQTLYESSVAFGMRKALQAEQGKSDMERKIAELETEKRDLERQVNEQKAKCEATEKRESERRQVEEKKHNEEIQFLKRTNQQLKAQLEGIIAPKK
notes: DNALI1; protein on the human proteome microarray; source: spotted on the HuProt human proteome microarray
For the molecule B12, the binding result was “binds”.

B13: GAPDH (natural protein)
chain: not shown
notes: GAPDH; protein on the human proteome microarray; source: spotted on the HuProt human proteome microarray
Turning to B13, the binding result is on record as “binds”.

B14: ISG20 (natural protein)
chain: not shown
notes: ISG20; protein on the human proteome microarray; source: spotted on the HuProt human proteome microarray
For the molecule B14, the binding result is reported as “binds”.

B15: KHDRBS3 (natural protein, human, UniProt O75525 1-346, looked up)
chain: MEEKYLPELMAEKDSLDPSFTHALRLVNQEIEKFQKGEGKDEEKYIDVVINKNMKLGQKVLIPVKQFPKFNFVGKLLGPRGNSLKRLQEETLTKMSILGKGSMRDKAKEEELRKSGEAKYFHLNDDLHVLIEVFAPPAEAYARMGHALEEIKKFLIPDYNDEIRQAQLQELTYLNGGSENADVPVVRGKPTLRTRGVPAPAITRGRGGVTARPVGVVVPRGTPTPRGVLSTRGPVSRGRGLLTPRARGVPPTGYRPPPPPPTQETYGEYDYDDGYGTAYDEQSYDSYDNSYSTPAQSGADYYDYGHGLSEETYDSYGQEEWTNSRHKAPSARTAKGVYRDQPYGRY
notes: KHDRBS3; protein on the human proteome microarray; source: spotted on the HuProt human proteome microarray
In the case of B15, the binding result is “binds”.

B16: HTATIP2 (natural protein, human, UniProt Q9BUP3 1-242, looked up)
chain: MAETEALSKLREDFRMQNKSVFILGASGETGRVLLKEILEQGLFSKVTLIGRRKLTFDEEAYKNVNQEVVDFEKLDDYASAFQGHDVGFCCLGTTRGKAGAEGFVRVDRDYVLKSAELAKAGGCKHFNLLSSKGADKSSNFLYLQVKGEVEAKVEELKFDRYSVFRPGVLLCDRQESRPGEWLVRKFFGSLPDSWASGHSVPVVTVVRAMLNNVVRPRDKQMELLENKAIHDLGKAHGSLKP
notes: HTATIP2; protein on the human proteome microarray; source: spotted on the HuProt human proteome microarray
As to B16, the binding result was “binds”.

B17: GSTZ1 (natural protein, human, UniProt O43708 1-216, looked up)
chain: MQAGKPILYSYFRSSCSWRVRIALALKGIDYKTVPINLIKDRGQQFSKDFQALNPMKQVPTLKIDGITIHQSLAIIEYLEEMRPTPRLLPQDPKKRASVRMISDLIAGGIQPLQNLSVLKQVGEEMQLTWAQNAITCGFNALEQILQSTAGIYCVGDEVTMADLCLVPQVANAERFKVDLTPYPTISSINKRLLVLEAFQVSHPCRQPDTPTELRA
notes: GSTZ1; protein on the human proteome microarray; source: spotted on the HuProt human proteome microarray
For B17, the binding result is “binds”.

B18: EIF4H (natural protein)
chain: not shown
notes: EIF4H; protein on the human proteome microarray; source: spotted on the HuProt human proteome microarray
As for B18, the binding result is on record as “binds”.

B19: CUTA (natural protein, human, UniProt O60888 33-179, looked up)
chain: RLLLLPRVLLTMASGSPPTQPSPASDSGSGYVPGSVSAAFVTCPNEKVAKEIARAVVEKRLAACVNLIPQITSIYEWKGKIEEDSEVLMMIKTQSSLVPALTDFVRSVHPYEVAEVIALPVEQGNFPYLQWVRQVTESVSDSITVLP
notes: CUTA; protein on the human proteome microarray; source: spotted on the HuProt human proteome microarray
Regarding B19, the binding result is reported as “binds”.

B20: GTF2B (natural protein, human, UniProt Q00403 1-316, looked up)
chain: MASTSRLDALPRVTCPNHPDAILVEDYRAGDMICPECGLVVGDRVIDVGSEWRTFSNDKATKDPSRVGDSQNPLLSDGDLSTMIGKGTGAASFDEFGNSKYQNRRTMSSSDRAMMNAFKEITTMADRINLPRNIVDRTNNLFKQVYEQKSLKGRANDAIASACLYIACRQEGVPRTFKEICAVSRISKKEIGRCFKLILKALETSVDLITTGDFMSRFCSNLCLPKQVQMAATHIARKAVELDLVPGRSPISVAAAAIYMASQASAEKRTQKEIGDIAGVADVTIRQSYRLIYPRAPDLFPTDFKFDTPVDKLPQL
notes: GTF2B; protein on the human proteome microarray; source: spotted on the HuProt human proteome microarray
Consider B20, for which the binding result was “binds”.

These data come from PMC8274477 (Frontiers in Cell and Developmental Biology, 2021).
